According to article PMC7614990 (Science (New York, N.Y.), 2021):

B1: SF3B3 (natural protein)
chain: MFLYNLTLQRATGISFAIHGNFSGTKQQEIVVSRGKILELLRPDPNTGKVHTLLTVEVFGVIRSLMAFRLTGGTKDYIVVGSDSGRIVILEYQPSKNMFEKIHQETFGKSGCRRIVPGQFLAVDPKGRAVMISAIEKQKLVYILNRDAAARLTISSPLEAHKANTLVYHVVGVDVGFENPMFACLEMDYEEADNDPTGEAAANTQQTLTFYELDLGLNHVVRKYSEPLEEHGNFLITVPGGSDGPSGVLICSENYITYKNFGDQPDIRCPIPRRRNDLDDPERGMIFVCSATHKTKSMFFFLAQTEQGDIFKITLETDEDMVTEIRLKYFDTVPVAAAMCVLKTGFLFVASEFGNHYLYQIAHLGDDDEEPEFSSAMPLEEGDTFFFQPRPLKNLVLVDELDSLSPILFCQIADLANEDTPQLYVACGRGPRSSLRVLRHGLEVSEMAVSELPGNPNAVWTVRRHIEDEFDAYIIVSFVNATLVLSIGETVEEVTDSGFLGTTPTLSCSLLGDDALVQVYPDGIRHIRADKRVNEWKTPGKKTIVKCAVNQRQVVIALTGGELVYFEMDPSGQLNEYTERKEMSADVVCMSLANVPPGEQRSRFLAVGLVDNTVRIISLDPSDCLQPLSMQALPAQPESLCIVEMGGTEKQDELGERGSIGFLYLNIGLQNGVLLRTVLDPVTGDLSDTRTRYLGSRPVKLFRVRMQGQEAVLAMSSRSWLSYSYQSRFHLTPLSYETLEFASGFASEQCPEGIVAISTNTLRILALEKLGAVFNQVAFPLQYTPRKFVIHPESNNLIIIETDHNAYTEATKAQRKQQMAEEMVEAAGEDERELAAEMAAAFLNENLPESIFGAPKAGNGQWASVIRVMNPIQGNTLDLVQLEQNEAAFSVAVCRFSNTGEDWYVLVGVAKDLILNPRSVAGGFVYTYKLVNNGEKLEFLHKTPVEEVPAAIAPFQGRVLIGVGKLLRVYDLGKKKLLRKCENKHIANYISGIQTIGHRVIVSDVQESFIWVRYKRNENQLIIFADDTYPRWVTTASLLDYDTVAGADKFGNICVVRLPPNTNDEVDEDPTGNKALWDRGLLNGASQKAEVIMNYHVGETVLSLQKTTLIPGGSESLVYTTLSGGIGILVPFTSHEDHDFFQHVEMHLRSEHPPLCGRDHLSFRSYYFPVKNVIDGDLCEQFNSMEPNKQKNVSEELDRTPPEVSKKLEDIRTRYAF
B2: HTATSF1 in the 17S U2 snRNP eluted with 3C protease (natural protein)
chain: SGTNLDGNDEFDEQLRMQELYGDGKDGDTQTDAGGEPDSLGQQPTDTPYEWDLDKKAWFPKITEDFIATYQANYGFSNDGASSSTANVEDVHARTAEEPPQEKAPEPTDARKKGEKRKAESGWFHVEEDRNTNVYVSGLPPDITVDEFIQLMSKFGIIMRDPQTEEFKVKLYKDNQGNLKGDGLCCYLKRESVELALKLLDEDEIRGYKLHVEVAKFQLKGEYDASKKKKKCKDYKKKLSMQQKQLDWRPERRAGPSRMRHERVVIIKNMFHPMDFEDDPLVLNEIREDLRVECSKFGQIRKLLLFDRHPDGVASVSFRDPEEADYCIQTLDGRWFGGRQITAQAWDGTTDYQVEETSREREERLRGWEAFLNAPEANRGLRRSDSVSASERAGPSRARHFSEHPSTSKMNAQETATGMAFEEPIDEKKFEKTEDGGEFEEGASENNAKESSPEKEAEEGCPEKESEEGCPKRGFEGSCSQKESEEGNPVRGSEEDSPKKESKKKTLKNDCEENGLAKESEDDLNKESEEEVGPTKESEEDDSEKESDEDCSEKQSEDGSEREFEENGLEKDLDEEGSEKELHENVLDKELEENDSENSEFEDDGSEKVLDEEGSEREFDEDSDEKEEEEDTYEKVFDDESDEKEDEEYADEKGLEAADKKAEEGDADEKLFEESDDKEDEDADGKEVEDADEKLFEDDDSNEKLFDEEEDSSEKLFDDSDERGTLGGFGSVEEGPLSTGSSFILSSDDDDDDI
B3: SF3B1 (natural protein)
chain: MAKIAKTHEDIEAQIREIQGKKAALDEAQGVGLDSTGYYDQEIYGGSDSRFAGYVTSIAATELEDDDDDYSSSTSLLGQKKPGYHAPVALLNDIPQSTEQYDPFAEHRPPKIADREDEYKKHRRTMIISPERLDPFADGGKTPDPKMNARTYMDVMREQHLTKEEREIRQQLAEKAKAGELKVVNGAAASQPPSKRKRRWDQTADQTPGATPKKLSSWDQAETPGHTPSLRWDETPGRAKGSETPGATPGSKIWDPTPSHTPAGAATPGRGDTPGHATPGHGGATSSARKNRWDETPKTERDTPGHGSGWAETPRTDRGGDSIGETPTPGASKRKSRWDETPASQMGGSTPVLTPGKTPIGTPAMNMATPTPGHIMSMTPEQLQAWRWEREIDERNRPLSDEELDAMFPEGYKVLPPPAGYVPIRTPARKLTATPTPLGGMTGFHMQTEDRTMKSVNDQPSGNLPFLKPDDIQYFDKLLVDVDESTLSPEEQKERKIMKLLLKIKNGTPPMRKAALRQITDKAREFGAGPLFNQILPLLMSPTLEDQERHLLVKVIDRILYKLDDLVRPYVHKILVVIEPLLIDEDYYARVEGREIISNLAKAAGLATMISTMRPDIDNMDEYVRNTTARAFAVVASALGIPSLLPFLKAVCKSKKSWQARHTGIKIVQQIAILMGCAILPHLRSLVEIIEHGLVDEQQKVRTISALAIAALAEAATPYGIESFDSVLKPLWKGIRQHRGKGLAAFLKAIGYLIPLMDAEYANYYTREVMLILIREFQSPDEEMKKIVLKVVKQCCGTDGVEANYIKTEILPPFFKHFWQHRMALDRRNYRQLVDTTVELANKVGAAEIISRIVDDLKDEAEQYRKMVMETIEKIMGNLGAADIDHKLEEQLIDGILYAFQEQTTEDSVMLNGFGTVVNALGKRVKPYLPQICGTVLWRLNNKSAKVRQQAADLISRTAVVMKTCQEEKLMGHLGVVLYEYLGEEYPEVLGSILGALKAIVNVIGMHKMTPPIKDLLPRLTPILKNRHEKVQENCIDLVGRIADRGAEYVSAREWMRICFELLELLKAHKKAIRRATVNTFGYIAKAIGPHDVLATLLNNLKVQERQNRVCTTVAIAIVAETCSPFTVLPALMNEYRVPELNVQNGVLKSLSFLFEYIGEMGKDYIYAVTPLLEDALMDRDLVHRQTASAVVQHMSLGVYGFGCEDSLNHLLNYVWPNVFETSPHVIQAVMGALEGLRVAIGPCRMLQYCLQGLFHPARKVRDVYWKIYNSIYIGSQDALIAHYPRIYNDDKNTYIRYELDYIL

Tests used:
Experiment in all cases: cryo-EM structure
SF3B1 = target: B3
SF3B6 = SF3B6 (human (endogenous in FreeStyle 293-F), UniProt Q9Y3B4 1-125)
PHF5A = PHF5A (human (endogenous in FreeStyle 293-F), UniProt Q7RTV0 1-110)

Binder | binding result (SF3B1) | binding result (SF3B6) | binding result (PHF5A)
B1 | binds | – | –
B2 | binds | – | –
B3 | – | binds | binds
